The values below come from patent US20040242847A1.

For the assay, the target named is human TPO receptor (MPL) (human) (UniProt P40238). The assay can be described thus: cell-based or functional assay.

In turn, “human TPO (R&D Systems) (from UniProt P40225 22-353) (ligand)” came in with a proliferation of BaF/mpl cells (WST-8), ED50 of 0.027 nM.
